Source: patent US7070974B1, “Metalloproteases of the neprilysin family” (Universite de Montreal, priority 1999, dated 2006)
Where two headings read alike, the source gives them in different places.

Tests used:
NL1 [1] = target: T1, NL1 (Mus musculus, UniProt Q9JLI3); assay: HPLC analysis of the hydrolysis of Leu-enkephalin by NL1; assay type: biochemical; set-up: The soluble form of NL-1 was assayed for activity; made in house; host or cells: HEK 293 cells (section 2, pCDNA3/RSV); conditions: phosphoramidon 1 μM; Leu5-enkephalin; NL1 from medium of HEK/NL1 cells; RP-HPLC
T1 sequence (Q9JLI3 63-765 limits assumed): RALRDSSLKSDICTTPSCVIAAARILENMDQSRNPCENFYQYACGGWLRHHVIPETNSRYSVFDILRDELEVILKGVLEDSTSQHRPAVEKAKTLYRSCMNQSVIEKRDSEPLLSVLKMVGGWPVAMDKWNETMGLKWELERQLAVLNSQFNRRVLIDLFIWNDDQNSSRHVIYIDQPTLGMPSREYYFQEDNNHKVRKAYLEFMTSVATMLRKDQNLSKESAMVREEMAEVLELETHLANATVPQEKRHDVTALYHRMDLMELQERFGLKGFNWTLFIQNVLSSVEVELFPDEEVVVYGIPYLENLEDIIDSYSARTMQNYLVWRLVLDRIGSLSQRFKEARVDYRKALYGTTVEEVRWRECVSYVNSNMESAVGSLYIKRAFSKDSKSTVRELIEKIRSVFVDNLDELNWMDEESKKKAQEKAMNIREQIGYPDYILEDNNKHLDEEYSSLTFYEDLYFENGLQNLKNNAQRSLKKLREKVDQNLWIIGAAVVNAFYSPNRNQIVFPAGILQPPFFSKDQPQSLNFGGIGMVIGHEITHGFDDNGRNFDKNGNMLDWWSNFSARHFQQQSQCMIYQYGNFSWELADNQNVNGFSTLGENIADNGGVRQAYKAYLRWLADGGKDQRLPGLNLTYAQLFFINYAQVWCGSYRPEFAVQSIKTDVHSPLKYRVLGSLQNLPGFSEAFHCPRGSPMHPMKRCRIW
From the text: (§1) Hydrolysis products were separated by reversed-phase HPLC as described previously.

[2] = target: T2, sNEP (engineered soluble form of NEP) (Oryctolagus cuniculus, UniProt P08049); assay: sNEP enzymatic activity assay with (Tyrosyl-[3,5-3H])(D-Ala2)-Leu5-enkephalin as substrate; assay type: biochemical; conditions: inhibition of sNEP/NEP activity
T2 construct: Fusion of a cleavable signal peptide to the ectodomain of neutral endopeptidase; cleavable signal peptide of proopiomelanocortin (replaces cytosolic and transmembrane domains) (N, cleaved yes); made in house; host or cells: LLC-PK1 cells transfected with pRcCMV-sNEP; concentrated culture medium
T2 sequence (P08049 52-750 limits assumed): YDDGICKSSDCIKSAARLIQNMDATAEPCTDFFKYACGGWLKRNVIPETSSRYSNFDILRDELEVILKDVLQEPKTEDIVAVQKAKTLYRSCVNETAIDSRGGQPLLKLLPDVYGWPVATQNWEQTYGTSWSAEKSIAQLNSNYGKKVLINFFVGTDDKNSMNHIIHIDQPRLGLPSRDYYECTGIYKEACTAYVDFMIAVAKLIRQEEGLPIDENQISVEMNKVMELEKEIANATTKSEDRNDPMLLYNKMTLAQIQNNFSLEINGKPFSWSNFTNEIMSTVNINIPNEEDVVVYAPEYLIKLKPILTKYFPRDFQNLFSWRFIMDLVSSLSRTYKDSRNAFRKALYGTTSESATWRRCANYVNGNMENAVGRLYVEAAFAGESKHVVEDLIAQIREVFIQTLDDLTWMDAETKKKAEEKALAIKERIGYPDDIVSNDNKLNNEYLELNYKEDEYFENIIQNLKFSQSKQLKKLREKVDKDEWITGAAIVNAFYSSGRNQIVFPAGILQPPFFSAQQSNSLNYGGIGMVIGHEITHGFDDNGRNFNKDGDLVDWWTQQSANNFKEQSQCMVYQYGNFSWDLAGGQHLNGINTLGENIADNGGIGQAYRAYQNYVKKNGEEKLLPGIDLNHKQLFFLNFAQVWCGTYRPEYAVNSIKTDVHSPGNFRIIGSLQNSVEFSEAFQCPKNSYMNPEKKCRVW

sNEP = target: T3, sNEP (Oryctolagus cuniculus, UniProt P08049); assay: HPLC analysis of the hydrolysis of Leu-enkephalin by sNEP; assay type: biochemical; conditions: phosphoramidon 1 μM, Leu5-enkephalin, RP-HPLC
T3 construct: Fusion of a cleavable signal peptide to the ectodomain of neutral endopeptidase; cleavable signal peptide of proopiomelanocortin (replaces cytosolic and transmembrane domains) (N, cleaved yes); made in house; host or cells: LLC-PK1 cells transfected with pRcCMV-sNEP; concentrated culture medium
T3 sequence (P08049 52-750 limits assumed): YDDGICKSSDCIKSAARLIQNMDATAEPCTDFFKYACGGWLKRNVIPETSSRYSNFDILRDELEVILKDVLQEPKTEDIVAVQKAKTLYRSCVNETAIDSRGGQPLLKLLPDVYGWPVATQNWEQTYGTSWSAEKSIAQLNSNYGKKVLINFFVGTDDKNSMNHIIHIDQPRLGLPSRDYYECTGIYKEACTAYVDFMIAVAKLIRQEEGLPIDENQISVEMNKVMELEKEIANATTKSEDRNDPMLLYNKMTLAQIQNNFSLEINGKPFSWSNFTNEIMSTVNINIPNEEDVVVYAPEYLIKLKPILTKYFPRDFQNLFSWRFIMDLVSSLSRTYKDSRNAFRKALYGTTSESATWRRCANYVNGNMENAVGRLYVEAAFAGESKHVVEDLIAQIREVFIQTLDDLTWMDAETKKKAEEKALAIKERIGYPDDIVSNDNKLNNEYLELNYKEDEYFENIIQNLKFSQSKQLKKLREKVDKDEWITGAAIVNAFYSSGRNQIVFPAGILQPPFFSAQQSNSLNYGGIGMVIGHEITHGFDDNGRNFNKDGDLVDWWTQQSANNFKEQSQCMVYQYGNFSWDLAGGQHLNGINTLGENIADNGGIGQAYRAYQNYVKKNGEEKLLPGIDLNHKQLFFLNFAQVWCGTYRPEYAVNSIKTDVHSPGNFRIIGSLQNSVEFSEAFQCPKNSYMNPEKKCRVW
From the text: as §1

NL1 [3] = target: T1, NL1; assay: NL-1 enzymatic activity assay with (Tyrosyl-[3,5-3H])(D-Ala2)-Leu5-enkephalin as substrate; assay type: biochemical; set-up: The soluble form of NL-1 was assayed for activity; made in house; host or cells: CHO cells (section 1, pcDNA3-RSV) and HEK 293 cells (section 2, pCDNA3/RSV); conditions: inhibition of NL-1 degradation of the enkephalin substrate
Procedure: Extracts of cellular proteins and culture media were assayed for enzymatic activity. Two tests were performed. The first used [^3H]-Tyr-(D)Ala2-Leu-enkephalin as substrate and was performed according to Lemay et al., (1989). The second used bradykinin as substrate and was performed as described by Raut et al. (1999).
NL1 activity was monitored and compared to sNEP activity using (Tyrosyl-[3,5-^3H])(D-Ala2)-Leu5-enkephalin (50 Ci/mmol) (Research Products International Inc.), as already described (Dion 1995; Devault 1988). Km values were determined by the isotope-dilution method.

Leu5-enkephalin [4] = system: T4, Leu5-enkephalin
T4 sequence: YGGFL

[5] = system: T5, (Tyrosyl-[3,5-3H])(D-Ala2)-Leu5-enkephalin
T5 sequence: YAGFL

[6] = system: NL1 secretion (subtilisin-like convertase processing) in HEK 293 cells; assay: Immunoblot of culture media of HEK 293 cells co-expressing NL1 and α1-PDX; assay type: cell-based, Human; conditions: transient co-transfection, increasing amounts of α1-PDX plasmid; related to the amount
Procedure: Human Embryonic Kidney (HEK 293) cells were maintained in DMEM medium containing 10% fetal bovine serum (FBS), and supplemented with penicillin at 60 μg/ml, streptomycin at 100 μg/ml and fongizone at 0.25 μg/ml. Transfections of cells with appropriate plasmids were performed by the calcium/phosphate-DNA co-precipitation method (Chang 1987).
For immunoblot analysis, cells were incubated for 16 h in synthetic DMEM medium containing 2 mM sodium butyrate. Cellular proteins were solubilized as previously described (Dion 1995). Secreted proteins recovered in culture media were concentrated approximately 10 fold by ultrafiltration. Immunoblot analysis were performed using the NEN Renaissance kit with the polyclonal antibody specific to NL1 or the α1-antitrypsin inhibitor antibody (Calbiochem; LaJolla, Calif.) followed by the appropriate horseradish peroxidase-conjugated IgG (Vector Laboratories).
To determine whether a member of the mammalian subtilisine-like convertase family is responsible for NL1 presence in the culture medium of transfected cells, we co-transfected transiently HEK 293 cells with a constant amount of plasmid pCDNA3/RSV/NL1 and increasing amounts of plasmid pCDNA3/CMV/PDX (Benjannet 1997). This latter vector promotes the expression of the α1-antitrypsin Portland variant, α1-PDX, a known inhibitor of subtilisin-like convertases (Anderson 1993).

Leu5-enkephalin [7] = target: T6, Leu5-enkephalin
T6 chain: YGGFL

[8] = target: T7, (Tyrosyl-[3,5-3H])(D-Ala2)-Leu5-enkephalin
T7 chain: YAGFL

bradykinin, P01042, sequence (P01042 whole entry, looked up): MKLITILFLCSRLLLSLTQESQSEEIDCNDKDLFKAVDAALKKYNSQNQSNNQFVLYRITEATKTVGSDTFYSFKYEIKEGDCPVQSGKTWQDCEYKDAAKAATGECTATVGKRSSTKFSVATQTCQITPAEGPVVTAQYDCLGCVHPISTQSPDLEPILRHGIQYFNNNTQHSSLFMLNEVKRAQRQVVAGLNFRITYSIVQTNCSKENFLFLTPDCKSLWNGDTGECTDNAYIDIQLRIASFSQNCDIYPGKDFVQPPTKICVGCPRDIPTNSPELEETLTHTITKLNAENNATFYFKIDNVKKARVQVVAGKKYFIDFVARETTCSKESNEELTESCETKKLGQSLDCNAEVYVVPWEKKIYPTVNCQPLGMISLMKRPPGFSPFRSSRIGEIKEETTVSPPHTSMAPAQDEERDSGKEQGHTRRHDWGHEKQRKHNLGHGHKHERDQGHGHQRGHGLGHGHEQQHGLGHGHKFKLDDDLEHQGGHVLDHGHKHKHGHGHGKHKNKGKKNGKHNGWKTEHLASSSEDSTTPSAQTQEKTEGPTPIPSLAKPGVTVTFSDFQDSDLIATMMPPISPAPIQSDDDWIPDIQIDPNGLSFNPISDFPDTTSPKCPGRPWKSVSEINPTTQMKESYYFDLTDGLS

CC(C)C[C@H](NP(=O)(O)O[C@@H]1O[C@@H](C)[C@H](O)[C@@H](O)[C@H]1O)C(=O)N[C@@H](Cc1c[nH]c2ccccc12)C(=O)O [phosphoramidon]
inhibition of enkephalin-degrading activity (NL1 [1]): completely inhibited
IC50 [2]: 0.5 nM
inhibition of enkephalin-degrading activity (sNEP): completely inhibited
IC50 (NL1 [3]): 0.9 nM

O=C(O)CNC(=O)C(CS)Cc1ccccc1 (centres unmarked) [thiorphan]
IC50 (NL1 [3]): 47 nM

engineered soluble form of NEP (sNEP)
cleavage products by RP-HPLC (Leu5-enkephalin [4]): both enzymes cleaved the substrate at the Gly3-Phe4 peptide bond
Km [5]: Km values of 18 µM and 73 µM, respectively

α1-PDX: α1-antitrypsin Portland variant, a known inhibitor of subtilisin-like convertases, expressed from plasmid pCDNA3/CMV/PDX
effect on NL1 secretion [6]: strongly inhibited

B1: soluble NL-1 (secreted form of mouse NL-1 recovered from culture medium) (protein)
chain: GKQLPLLTSLLHFSWDERTVVKRALRDSSLKSDICTTPSCVIAAARILENMDQSRNPCENFYQYACGGWLRHHVIPETNSRYSVFDILRDELEVILKGVLEDSTSQHRPAVEKAKTLYRSCMNQSVIEKRDSEPLLSVLKMVGGWPVAMDKWNETMGLKWELERQLAVLNSQFNRRVLIDLFIWNDDQNSSRHVIYIDQPTLGMPSREYYFQEDNNHKVRKAYLEFMTSVATMLRKDQNLSKESAMVREEMAEVLELETHLANATVPQEKRHDVTALYHRMDLMELQERFGLKGFNWTLFIQNVLSSVEVELFPDEEVVVYGIPYLENLEDIIDSYSARTMQNYLVWRLVLDRIGSLSQRFKEARVDYRKALYGTTVEEVRWRECVSYVNSNMESAVGSLYIKRAFSKDSKSTVRELIEKIRSVFVDNLDELNWMDEESKKKAQEKAMNIREQIGYPDYILEDNNKHLDEEYSSLTFYEDLYFENGLQNLKNNAQRSLKKLREKVDQNLWIIGAAVVNAFYSPNRNQIVFPAGILQPPFFSKDQPQSLNFGGIGMVIGHEITHGFDDNGRNFDKNGNMLDWWSNFSARHFQQQSQCMIYQYGNFSWELADNQNVNGFSTLGENIADNGGVRQAYKAYLRWLADGGKDQRLPGLNLTYAQLFFINYAQVWCGSYRPEFAVQSIKTDVHSPLKYRVLGSLQNLPGFSEAFHCPRGSPMHPMKRCRIW
cleavage products by RP-HPLC (Leu5-enkephalin [7]): both enzymes cleaved the substrate at the Gly3-Phe4 peptide bond
substrate degradation (bradykinin, P01042): Bradykinin is also a substrate for NL-1 (not shown)
Km [8]: Km values of 18 µM and 73 µM, respectively
Km (degradation of the enkephalin substrate) [8]: Km=18±10 µM
enzymatic activity in culture medium [8]: Activity was detected in the culture medium of HEK/NL1 cells but not in that of HEK 293 cells

B2: soluble form of NL-3 (NL-3 ectodomain secreted by means of the NL-1 amino-terminal domain) (protein)
chain: KYLGPVAAGGGACPEGCPERKAFARAARFLAANLDASIDPCQDFYSFACGGWLRRHAIPDDKLTYGTIAAIGEQNEERLRRLLARPGGGPGGAAQRKVRAFFRSCLDMREIERLGPRPMLEVIEDCGGWDLGGAEERPGVAARWDLNRLLYKAQGVYSAAALFSLTVSLDDRNSSRYVIRIDQDGLTLPERTLYLAQDEDSEKVLAAYRVFMERVLSLLGADAVEQKAQEILQVEQQLANITVSEYDDLRRDVSSMYNKVTLGQLQKITPHLRWKWLLDQIFQEDFSEEEEVVLLATDYMQQVSQLIRSTPHRVLHNYLVWRVVVVLSEHLSPPFREALHELAQEMEGSDKPQELARVCLGQANRHFGMALGALFVHEHFSAASKAKVQQLVEDIKYILGQRLEELDWMDAETRAAARAKLQYMMVMVGYPDFLLKPDAVDKEYEFEVHEKTYFKNILNSIRFSIQLSVKKIRQEVDKSTWLLPPQALNAYYLPNKNQMVFPAGILQPTLYDPDFPQSLNYGGIGTIIGHELTHGYDDWGGQYDRSGNLLHWWTEASYSRFLRKAECIVRLYDNFTVYNQRVNGKHTLGENIADMGGLKLAYHAYQKWVREHGPEHPLPRLKYTHDQLFFIAFAQNWCIKRRSQSIYLQVLTDKHAPEHYRVLGSVSQFEEFGRVLHCPKVSPMNPAHKCSVW
enzymatic activity [8]: No activity was found.
